Assay results published in patent publication US20260146071A1, “CCR2 INHIBITORS AND METHODS OF USE” (ORION BIOTECHNOLOGY USA Corp., priority 2022, published 2026).
Where no end group is shown, it is not given here.

Biological target: T1, CCR2 (Homo sapiens, UniProt P41597)
T1 construct: endogenous in cells; host or cells: THP-1
T1 sequence (P41597 1-360 isoform P41597-2): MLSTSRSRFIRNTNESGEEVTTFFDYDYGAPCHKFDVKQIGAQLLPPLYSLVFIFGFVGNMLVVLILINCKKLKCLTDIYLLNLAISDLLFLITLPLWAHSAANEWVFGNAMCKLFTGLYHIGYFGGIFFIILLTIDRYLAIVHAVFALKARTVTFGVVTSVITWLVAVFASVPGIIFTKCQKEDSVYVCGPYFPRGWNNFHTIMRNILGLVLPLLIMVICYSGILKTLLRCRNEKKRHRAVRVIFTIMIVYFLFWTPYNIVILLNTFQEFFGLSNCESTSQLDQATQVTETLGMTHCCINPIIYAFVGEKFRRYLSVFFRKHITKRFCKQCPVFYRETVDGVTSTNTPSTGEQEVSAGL
Assay: CCR2 inhibitory potency assay, calcium flux method, THP-1 cells stimulated with 100 nM CCL2
Type: cell-based
Conditions: Table 3; CCR2 inhibition; read-out: mean IC50
Procedure: CCR2 inhibitory potency assay was determined using the calcium flux method.
Ca^2+ flux measurements were performed using an FDSS micro-cell device ([…]). On the day of the experiment, THP-1 cells were seeded 20000 cells/well) to wells of black-walled clear-bottom 384-well plates.
THP-1 cells were loaded with a calcium-sensitive fluorescent dye (Screen Quest™ Fluo-8 No Wash Calcium Assay Kit, AAT Bioquest) according to the manufacturer's instructions, then a first addition of either test sample dilutions or vehicle alone were added. 5 minutes later, cells were stimulated with 100 nM CCL2.

IC50 | Substance
32.4 nM | CCL2 variant, N-terminal MYGLGWNAPVT (SEQ ID NO: 23), human CCL2 Met64Nle core [CCL2-M64Nle-1P19]
50.2 nM | CCL2 variant, N-terminal SPSYTRAPVT (SEQ ID NO: 31), human CCL2 Met64Nle core [CCL2-M64Nle-2P7]
183 nM | CCL2 variant, N-terminal TPGH(Nle)KAPVT (SEQ ID NO: 37), human CCL2 Met64Nle core [CCL2-M64Nle-2P4]
225 nM | CCL2 variant, N-terminal TPGHYRAPVT (SEQ ID NO: 39), human CCL2 Met64Nle core [CCL2-M64Nle-2P3]
18.4 nM | CCL2 variant, N-terminal TPGYLKAPVT (SEQ ID NO: 19), human CCL2 Met64Nle core [CCL2-M64Nle-NGS-MEO-5]
32.8 nM | CCL2 variant, N-terminal WRPHWSAPVT (SEQ ID NO: 25), human CCL2 Met64Nle core [CCL2-M64Nle-1P3]
26.7 nM | CCL2 variant, N-terminal WYTVGWNAPVT (SEQ ID NO: 21), human CCL2 Met64Nle core [CCL2-M64Nle-1P16]
155 nM | CCL2-M64Nle-NGS-MESR-1 (SYSWVR; also: part of CCL2 M64Nle construct, placement of chain in protein not given here)
41.5 nM | CCL2-M64Nle-NGS-MESR-5 (AWGGIR; also: part of CCL2 M64Nle construct, placement of chain in protein not given here)

The remaining lines, values behind:

Substance | IC50
CCL2 variant, N-terminal ISWFTFNAPVT (SEQ ID NO: 22), human CCL2 Met64Nle core [CCL2-M64Nle-1P13] | 31.2 nM
CCL2 variant, N-terminal IYGVGWNAPVT (SEQ ID NO: 14), human CCL2 Met64Nle core [CCL2-M64Nle-1P14] | 9.99 nM
CCL2 variant, N-terminal RPYLWKAPVT (SEQ ID NO: 12), human CCL2 Met64Nle core [CCL2-M64Nle-2P5] | 5.83 nM
CCL2 variant, N-terminal VPDWSQAPVT (SEQ ID NO: 18), human CCL2 Met64Nle core [CCL2-M64Nle-1P22] | 15.3 nM
CCL2 variant, N-terminal VTNPTWAPVT (SEQ ID NO: 20), human CCL2 Met64Nle core [CCL2-M64Nle-1P02-F1V] | 24.6 nM
CCL2 variant, N-terminal WVLSSLNAPVT (SEQ ID NO: 17), human CCL2 Met64Nle core [CCL2-M64Nle-1P5] | 14.2 nM

Same assay, conditions: Table 4; CCR2 inhibition; read-out: mean IC50

IC50 | Substance
1.28 nM | CCL2 variant, N-terminal FTNPTWDTGT (SEQ ID NO: 96), human CCL2 11-76 Met64Nle core (not fully specified (C-terminus); also: followed C-terminally by human CCL2 11-76 core with Met64Nle) [3P21-CCL2]
1.53 nM | CCL2 variant, N-terminal FTNPTWKPST (SEQ ID NO: 90), human CCL2 11-76 Met64Nle core (not fully specified (C-terminus); also: followed C-terminally by human CCL2 11-76 core with Met64Nle) [3P15-CCL2]
1.23 nM | CCL2 variant, N-terminal FTNPTWKPYA (SEQ ID NO: 91), human CCL2 11-76 Met64Nle core (not fully specified (C-terminus); also: followed C-terminally by human CCL2 11-76 core with Met64Nle) [3P16-CCL2]
1 nM | CCL2 variant, N-terminal FTNPTWQEYS (SEQ ID NO: 92), human CCL2 11-76 Met64Nle core (not fully specified (C-terminus); also: followed C-terminally by human CCL2 11-76 core with Met64Nle) [3P17-CCL2]
2.86 nM | CCL2 variant, N-terminal FTNPTWRPST (SEQ ID NO: 80), human CCL2 11-76 Met64Nle core (not fully specified (C-terminus); also: followed C-terminally by human CCL2 11-76 core with Met64Nle) [3P5-CCL2]

Continued, substance first:

Substance | IC50
CCL2 variant, N-terminal FTNPTWDSVT (SEQ ID NO: 98), human CCL2 11-76 Met64Nle core (not fully specified (C-terminus); also: followed C-terminally by human CCL2 11-76 core with Met64Nle) [3P23-CCL2] | 0.678 nM
CCL2 variant, N-terminal FTNPTWDTQV (SEQ ID NO: 79), human CCL2 11-76 Met64Nle core (not fully specified (C-terminus); also: followed C-terminally by human CCL2 11-76 core with Met64Nle) [3P4-CCL2] | 0.646 nM
CCL2 variant, N-terminal FTNPTWSGVT (SEQ ID NO: 81), human CCL2 11-76 Met64Nle core (not fully specified (C-terminus); also: followed C-terminally by human CCL2 11-76 core with Met64Nle) [3P6-CCL2] | 1.27 nM
CCL2 variant, N-terminal FTNPTWSQGV (SEQ ID NO: 94), human CCL2 11-76 Met64Nle core (not fully specified (C-terminus); also: followed C-terminally by human CCL2 11-76 core with Met64Nle) [3P19-CCL2] | 0.914 nM
